Experimental findings from patent US20160250325A1 (ISA PHARMACEUTICALS B V, published 2016) are described below.

Ends that are not written are not given here. * marks the point of attachment. X1 = (RS)‑2,3‑di(palmitoyloxy)propyl, CCCCCCCCCCCCCCCC(=O)OCC(C*)OC(=O)CCCCCCCCCCCCCCC

In the assay the target is mouse TLR2 on a murine dendritic cell line (mouse, UniProt Q9QUN7 25-784). Kind of assay: cell-based or functional assay.
mouse TLR2 on a murine dendritic cell line, sequence (Q9QUN7 25-784): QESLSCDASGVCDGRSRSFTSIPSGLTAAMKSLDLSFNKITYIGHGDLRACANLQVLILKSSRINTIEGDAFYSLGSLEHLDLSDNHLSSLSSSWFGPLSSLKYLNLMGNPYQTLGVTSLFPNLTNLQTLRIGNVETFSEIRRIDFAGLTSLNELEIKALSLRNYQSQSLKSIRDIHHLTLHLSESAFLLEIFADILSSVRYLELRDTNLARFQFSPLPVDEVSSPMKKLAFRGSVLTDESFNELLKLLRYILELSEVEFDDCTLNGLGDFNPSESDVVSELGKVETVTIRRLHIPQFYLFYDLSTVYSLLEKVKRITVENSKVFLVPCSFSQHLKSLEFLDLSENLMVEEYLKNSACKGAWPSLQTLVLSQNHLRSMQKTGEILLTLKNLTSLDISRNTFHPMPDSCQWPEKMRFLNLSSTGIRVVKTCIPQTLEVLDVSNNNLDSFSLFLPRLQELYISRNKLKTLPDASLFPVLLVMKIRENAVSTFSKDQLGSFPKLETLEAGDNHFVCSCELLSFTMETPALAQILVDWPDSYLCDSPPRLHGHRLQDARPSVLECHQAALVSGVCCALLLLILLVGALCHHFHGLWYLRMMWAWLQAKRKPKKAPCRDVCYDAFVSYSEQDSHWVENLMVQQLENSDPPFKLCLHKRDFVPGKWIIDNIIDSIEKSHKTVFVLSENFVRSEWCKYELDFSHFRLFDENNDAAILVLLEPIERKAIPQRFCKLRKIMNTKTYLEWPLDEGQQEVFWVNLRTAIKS

B1: U-Pam-12 (1-dodecadecyl-urea-Cys((RS)-2,3-di(palmitoyloxy)-propyl)-Ser-Lys-Lys-Lys-Lys-NH2) (peptide)
peptide: C(X1)SKKKK-NH2
modifications: not fully specified (N-terminus); printed as 1-dodecadecyl-urea-Cys((RS)-2,3-di(palmitoyloxy)-propyl)-Ser-Lys-Lys-Lys-Lys-NH2; also: epimer mixture at C-2 of dipalmitoyloxypropyl
With B1, the “IL-12 in supernatant of a murine dendritic cell line after 24 h (sandwich ELISA); concentration needed for similar stimulation, against Pam3CysSK4” value is 100 fold and the “IL-12 in supernatant of a murine dendritic cell line after 24 h (sandwich ELISA); maximal stimulation level against Pam3CysSK4” value was 2 fold.

B2: U-Pam-14 (1-tetradecyl-urea-Cys((RS)-2,3-di(palmitoyloxy)-propyl)-Ser-Lys-Lys-Lys-Lys-NH2) (peptide)
peptide: {1‑tetradecyl‑urea}-C(X1)SKKKK-NH2
modifications: also: epimer mixture at C-2 of dipalmitoyloxypropyl
As to B2, the “IL-12 in supernatant of a murine dendritic cell line after 24 h (sandwich ELISA); concentration needed for similar stimulation, against Pam3CysSK4” value turned out to be 100 fold and the “IL-12 in supernatant of a murine dendritic cell line after 24 h (sandwich ELISA); maximal stimulation level against Pam3CysSK4” value came out at 2 fold.
